What was measured:
[1] = biological target: E22P-Aβ42; assay: SEC; Superdex75 10/300GL, PBS pH 7.4, 0.6 mL/min; Aβ solution 25 μM incubated at 37 °C for the indicated duration, supernatant after centrifugation (17,860 x g, 4 °C, 10 min) analysed; dextran standards
[2] = biological target: E22P-Aβ42 dimer; assay: as above

| stoichiometry N [1] | stoichiometry N [2] | Substance |
| --- | --- | --- |
| 6 to 8 |  | E22P-Aβ42 (peptide) |
|  | 6 to 8 | E22P-Aβ42 dimer (peptide) |

— PMC4931470
